From paper PMC6238066, “Versatile Fungal Polyphenol Oxidase with Chlorophenol Bioremediation Potential: Characterization and Protein Engineering” (Applied and Environmental Microbiology, 2018)

Tests used:
Oc1ccc(Cl)cc1O = assay: spectrophotometric oxidation assay, nonlinear regression; type: biochemical, Thermothelomyces thermophilus; conditions: 0.1 M sodium phosphate pH 7, 40°C, 440 nm, 0 to 5 mM substrate
Source text: (§1) spectrophotometric oxidation assay, nonlinear regression on TtPPO

purified protein = substrate: COc1ccccc1O; assay: purified protein; conditions: 0.1 M sodium phosphate pH 7, 40°C, 0 to 15 mM substrate
[1] = substrate: COc1cc(C=O)ccc1O; assay: spectrophotometric oxidation assay, nonlinear regression; type: biochemical, Thermothelomyces thermophilus; conditions: 0.1 M sodium phosphate pH 7, 40°C, 0 to 5 mM substrate
Source text: as §1

[2] = substrate: Oc1ccc(O)cc1; assay: as above; type: biochemical, Thermothelomyces thermophilus; conditions: 0.1 M sodium phosphate pH 7, 40°C, 480 nm, 0 to 70 mM substrate
Source text: as §1

[3] = substrate: Oc1cc(O)c2c(c1)O[C@H](c1ccc(O)c(O)c1)[C@@H](O)C2; assay: as above; type: biochemical, Thermothelomyces thermophilus; conditions: 0.1 M sodium phosphate pH 7, 40°C, 440 nm, 0 to 10 mM substrate (Km lies above tested range)
Source text: as §1

[4] = substrate: Oc1ccccc1O; assay: as above; type: biochemical, Thermothelomyces thermophilus; conditions: 0.1 M sodium phosphate pH 7, 40°C, 0 to 60 mM substrate
Source text: as §1

[5] = substrate: N[C@@H](Cc1ccc(O)c(O)c1)C(=O)O; assay: as above; type: biochemical, Thermothelomyces thermophilus; conditions: 0.1 M sodium phosphate pH 7, 40°C, 475 nm, 0 to 7 mM substrate
Source text: as §1

“TtPPO (Thermothelomyces thermophilus ATCC 42464)” was tested, and the Km (Oc1ccc(Cl)cc1O) was 1.6 (0.1) mM, the kcat (Oc1ccc(Cl)cc1O) was 5.69 s⁻¹ and the kcat/Km (Oc1ccc(Cl)cc1O) was 3490 M⁻¹ s⁻¹.

B1: TtPPO (Thermothelomyces thermophilus ATCC 42464) (protein)
chain: RCSSDAPPPAPVGDDLTEPKELTDLFEKAKKAVIDRLHEDEKALRARGEAPRCTADKLIFRREYGSLSKDERLAYVNAVKCLQSKPPRTPASVAPGARSRFDDFVVVHIQQTLDIHYSGIFQAWHRWFVYQYEKALRDECGYTGYQPYWDWPKYASAPQDSPLFNGDPYSLGGNGEYVPHDGPVIVPPEGVSGGNISLPAGVGGGFVRTGPFANMTVNLGPVGGLADTAPGPQGGLGYNPRGLKRDLGGAMNTRYANYTTVLRLLTQPDVDAFRTVSEGVPYTVEIGPHGGIHYTIGGDPGGDLFTSPGDPAFWVHHAQMDRVWATWQALGLLPPADGGDPDPARRYTDLGKGDYAHRTWQNSPPSPFAELSDVIDMGYAAPSTTIGAVMSTTEGELCYFYL
notes: secreted by Pichia pastoris X-33, glycosylated; IMAC
In the case of B1, the Km (purified protein) is reported as 4.2 (0.6) mM, the kcat (purified protein) is reported as 2.91 s⁻¹ and the kcat/Km (purified protein) is reported as 690 M⁻¹ s⁻¹. The Km [1] was 2.0 (0.1) mM, the kcat [1] was 1.92 s⁻¹ and the kcat/Km [1] was 987 M⁻¹ s⁻¹. The Km [2] was 54.4 (5.5) mM, the kcat [2] was 1.69 s⁻¹ and the kcat/Km [2] was 31.7 M⁻¹ s⁻¹. The Km [3] was 31.0 (12.9) mM, the kcat [3] was 40.5 s⁻¹ and the kcat/Km [3] was 1300 M⁻¹ s⁻¹. For the same molecule, the Km [4] was 27.0 (2.8) mM, the kcat [4] was 2.19 s⁻¹ and the kcat/Km [4] was 81.7 M⁻¹ s⁻¹. For the same molecule, the Km [5] was 2.2 (0.6) mM, the kcat [5] was 0.108 s⁻¹ and the kcat/Km [5] was 50 M⁻¹ s⁻¹.
